Assay results from US20210388087A1 (Chugai, published 2021).
Where a chain is given by its changes, count along the chain named. Names may count otherwise. Values belong to the binder of their own block, whether it stands above or below them.

Target: T1, CD3 epsilon homodimer protein (UniProt P07766 23-126)
T1 construct: immobilized on Sensor chip CM4 by amine coupling; also called CD3 (CD3 epsilon)
Experiment: SPR (Biacore T200), CD3 epsilon homodimer on CM4 chip, one-arm antibody as analyte, 25 C;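 note: homodimer attached to the sensor surface via amine coupling, HBS-EP+ used as running buffer during binding runs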

T1 sequence (P07766 23-126): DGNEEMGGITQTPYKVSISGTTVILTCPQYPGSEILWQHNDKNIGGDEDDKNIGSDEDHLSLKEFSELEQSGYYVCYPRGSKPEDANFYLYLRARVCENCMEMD

ratio of amounts bound (altered form / CE115HA000): 2.83
B3: CE115HA000 G98K one-arm antibody (antibody, human IgG1, kappa, L234A L235A, N297A, name in Kabat numbering)
heavy: QVQLVESGGGVVQPGRSLRLSCAASGFTFSNAWMHWVRQAPGKGLEWVAQIKAKSNNYATYYAESVKGRFTISRDDSKNSLYLQMNSLKTEDTAVYYCRYVHYKAYYGVDAWGQGTTVTVSSASTKGPSVFPLAPSSKSTSGGTAALGCLVKDYFPEPVTVSWNSGALTSGVHTFPAVLQSSGLYSLSSVVTVPSSSLGTQTYICNVNHKPSNTKVDKKVEPKSCDKTHTCPPCPAPEAAGGPSVFLFPPKPKDTLMISRTPEVTCVVVDVSHEDPEVKFNWYVDGVEVHNAKTKPREEQYASTYRVVSVLTVLHQDWLNGKEYKCKVSNKALPAPIEKTISKAKGQPREPQVYTLPPSRCELTKNQVSLSCAVKGFYPSDIAVEWESNGQPENNYKTTPPVLDSDGSFFLVSKLTVDKSRWQQGNVFSCSVMHEALHNHYTQKSLSLSPDYKDDDDK
chain: EPKSSDKTHTCPPCPAPELLGGPSVFLFPPKPKDTLMISRTPEVTCVVVDVSHEDPEVKFNWYVDGVEVHNAKTKPREEQYNSTYRVVSVLTVLHQDWLNGKEYKCKVSNKALPAPIEKTISKAKGQPREPQVCTLPPSRDELTKNQVSLWCLVKGFYPSDIAVEWESNGQPENNYKTTPPVLDSDGSFFLYSKLTVDKSRWQQGNVFSCSVMHEALHNRYTQKSLSLSP
light: DIVMTQSPLSLPVTPGEPASISCRSSQSLVHSNRNTYLHWYQQKPGQAPRLLIYKVSNRFSGVPDRFSGSGSGTDFTLKISRVEAEDVGVYYCGQGTQVPYTFGQGTKLEIKRTVAAPSVFIFPPSDEQLKSGTASVVCLLNNFYPREAKVQWKVDNALQSGNSQESVTEQDSKDSTYSLSSTLTLSKADYEKHKVYACEVTHQGLSSPVTKSFNRGEC

ratio of amounts bound (altered form / CE115HA000): 0.78
B5: CE115HA000 G65E one-arm antibody (antibody, human IgG1, kappa, L234A L235A, N297A, name in Kabat numbering)
heavy: B3 heavy with G68E, K104G
chain: B3 chain
light: B3 light

ratio of amounts bound (altered form / CE115HA000): 0.27
B6: CE115HA000 G100bD one-arm antibody (antibody, human IgG1, kappa, L234A L235A, N297A, name in Kabat numbering)
heavy: B3 heavy with K104G, G108D
chain: B3 chain
light: B3 light

ratio of amounts bound (altered form / CE115HA000): 1.58
B10: CE115HA000 G98H one-arm antibody (antibody, human IgG1, kappa, L234A L235A, N297A, name in Kabat numbering)
heavy: B3 heavy with K104H
chain: B3 chain
light: B3 light

ratio of amounts bound (altered form / CE115HA000): 1.22
B11: CE115HA000 G98Q one-arm antibody (antibody, human IgG1, kappa, L234A L235A, N297A, name in Kabat numbering)
heavy: B3 heavy with K104Q
chain: B3 chain
light: B3 light

ratio of amounts bound (altered form / CE115HA000): 0.26
B12: CE115HA000 G98D one-arm antibody (antibody, human IgG1, kappa, L234A L235A, N297A, name in Kabat numbering)
heavy: B3 heavy with K104D
chain: B3 chain
light: B3 light

ratio of amounts bound (altered form / CE115HA000): 1.1
B13: CE115HA000 G98A one-arm antibody (antibody, human IgG1, kappa, L234A L235A, N297A, name in Kabat numbering)
heavy: B3 heavy with K104A
chain: B3 chain
light: B3 light

ratio of amounts bound (altered form / CE115HA000): 1.07
B14: CE115HA000 E61Q one-arm antibody (antibody, human IgG1, kappa, L234A L235A, N297A, name in Kabat numbering)
heavy: B3 heavy with E64Q, K104G
chain: B3 chain
light: B3 light

ratio of amounts bound (altered form / CE115HA000): 2.22
B16: CE115HA000 G98Y one-arm antibody (antibody, human IgG1, kappa, L234A L235A, N297A, name in Kabat numbering)
heavy: B3 heavy with K104Y
chain: B3 chain
light: B3 light

ratio of amounts bound (altered form / CE115HA000): 0.76
B20: CE115HA000 G65D one-arm antibody (antibody, human IgG1, kappa, L234A L235A, N297A, name in Kabat numbering)
heavy: B3 heavy with G68D, K104G
chain: B3 chain
light: B3 light

ratio of amounts bound (altered form / CE115HA000): 2.96
B22: CE115HA000 G98R one-arm antibody (antibody, human IgG1, kappa, L234A L235A, N297A, name in Kabat numbering)
heavy: B3 heavy with K104R
chain: B3 chain
light: B3 light

ratio of amounts bound (altered form / CE115HA000): 0.36
B23: CE115HA000 F29V one-arm antibody (antibody, human IgG1, kappa, L234A L235A, N297A, name in Kabat numbering)
heavy: B3 heavy with F29V, K104G
chain: B3 chain
light: B3 light

ratio of amounts bound (altered form / CE115HA000): 1.02
B24: CE115HA000 G98P one-arm antibody (antibody, human IgG1, kappa, L234A L235A, N297A, name in Kabat numbering)
heavy: B3 heavy with K104P
chain: B3 chain
light: B3 light

ratio of amounts bound (altered form / CE115HA000): 1.01
B30: CE115HA000 G98S one-arm antibody (antibody, human IgG1, kappa, L234A L235A, N297A, name in Kabat numbering)
heavy: B3 heavy with K104S
chain: B3 chain
light: B3 light

ratio of amounts bound (altered form / CE115HA000): 1.05
B33: CE115HA000 G98T one-arm antibody (antibody, human IgG1, kappa, L234A L235A, N297A, name in Kabat numbering)
heavy: B3 heavy with K104T
chain: B3 chain
light: B3 light

More lines, now with the values behind:

B1: CE115HA000 D101F one-arm antibody (antibody, human IgG1, kappa, L234A L235A, N297A, name in Kabat numbering)
heavy: B3 heavy with K104G, D110F
chain: B3 chain
light: B3 light
ratio of amounts bound (altered form / CE115HA000): 0.75

B2: CE115HA000 D101G one-arm antibody (antibody, human IgG1, kappa, L234A L235A, N297A, name in Kabat numbering)
heavy: B3 heavy with K104G, D110G
chain: B3 chain
light: B3 light
ratio of amounts bound (altered form / CE115HA000): 1.38

B4: CE115HA000 D101N one-arm antibody (antibody, human IgG1, kappa, L234A L235A, N297A, name in Kabat numbering)
heavy: B3 heavy with K104G, D110N
chain: B3 chain
light: B3 light
ratio of amounts bound (altered form / CE115HA000): 2.02

B7: CE115HA000 D101M one-arm antibody (antibody, human IgG1, kappa, L234A L235A, N297A, name in Kabat numbering)
heavy: B3 heavy with K104G, D110M
chain: B3 chain
light: B3 light
ratio of amounts bound (altered form / CE115HA000): 1.2

B8: CE115HA000 D101P one-arm antibody (antibody, human IgG1, kappa, L234A L235A, N297A, name in Kabat numbering)
heavy: B3 heavy with K104G, D110P
chain: B3 chain
light: B3 light
ratio of amounts bound (altered form / CE115HA000): 0.2

B9: CE115HA000 D101I one-arm antibody (antibody, human IgG1, kappa, L234A L235A, N297A, name in Kabat numbering)
heavy: B3 heavy with K104G, D110I
chain: B3 chain
light: B3 light
ratio of amounts bound (altered form / CE115HA000): 1.18

B15: CE115HA000 D101K one-arm antibody (antibody, human IgG1, kappa, L234A L235A, N297A, name in Kabat numbering)
heavy: B3 heavy with K104G, D110K
chain: B3 chain
light: B3 light
ratio of amounts bound (altered form / CE115HA000): 0.63

B17: CE115HA000 D101V one-arm antibody (antibody, human IgG1, kappa, L234A L235A, N297A, name in Kabat numbering)
heavy: B3 heavy with K104G, D110V
chain: B3 chain
light: B3 light
ratio of amounts bound (altered form / CE115HA000): 1.33

B18: CE115HA000 D101T one-arm antibody (antibody, human IgG1, kappa, L234A L235A, N297A, name in Kabat numbering)
heavy: B3 heavy with K104G, D110T
chain: B3 chain
light: B3 light
ratio of amounts bound (altered form / CE115HA000): 0.79

B19: CE115HA000 D101H one-arm antibody (antibody, human IgG1, kappa, L234A L235A, N297A, name in Kabat numbering)
heavy: B3 heavy with K104G, D110H
chain: B3 chain
light: B3 light
ratio of amounts bound (altered form / CE115HA000): 1.21

B21: CE115HA000 D101L one-arm antibody (antibody, human IgG1, kappa, L234A L235A, N297A, name in Kabat numbering)
heavy: B3 heavy with K104G, D110L
chain: B3 chain
light: B3 light
ratio of amounts bound (altered form / CE115HA000): 0.62

B25: CE115HA000 D101R one-arm antibody (antibody, human IgG1, kappa, L234A L235A, N297A, name in Kabat numbering)
heavy: B3 heavy with K104G, D110R
chain: B3 chain
light: B3 light
ratio of amounts bound (altered form / CE115HA000): 0.24

B26: CE115HA000 E61A one-arm antibody (antibody, human IgG1, kappa, L234A L235A, N297A, name in Kabat numbering)
heavy: B3 heavy with E64A, K104G
chain: B3 chain
light: B3 light
ratio of amounts bound (altered form / CE115HA000): 1.09

B27: CE115HA000 E61P one-arm antibody (antibody, human IgG1, kappa, L234A L235A, N297A, name in Kabat numbering)
heavy: B3 heavy with E64P, K104G
chain: B3 chain
light: B3 light
ratio of amounts bound (altered form / CE115HA000): 1.07

B28: CE115HA000 D101S one-arm antibody (antibody, human IgG1, kappa, L234A L235A, N297A, name in Kabat numbering)
heavy: B3 heavy with K104G, D110S
chain: B3 chain
light: B3 light
ratio of amounts bound (altered form / CE115HA000): 1.16

B29: CE115HA000 E61D one-arm antibody (antibody, human IgG1, kappa, L234A L235A, N297A, name in Kabat numbering)
heavy: B3 heavy with E64D, K104G
chain: B3 chain
light: B3 light
ratio of amounts bound (altered form / CE115HA000): 0.91

B31: CE115HA000 D101Y one-arm antibody (antibody, human IgG1, kappa, L234A L235A, N297A, name in Kabat numbering)
heavy: B3 heavy with K104G, D110Y
chain: B3 chain
light: B3 light
ratio of amounts bound (altered form / CE115HA000): 0.49

B32: CE115HA000 D101Q one-arm antibody (antibody, human IgG1, kappa, L234A L235A, N297A, name in Kabat numbering)
heavy: B3 heavy with K104G, D110Q
chain: B3 chain
light: B3 light
ratio of amounts bound (altered form / CE115HA000): 2.35
